Measurements taken from patent US20220096548A1.

B1: scFv antibody derived from reference Antibody 1 (binding to IL-6R), fused with an Fc fragment of human IgG1 (Fc fusion, not shown: a dimerising Fc or GST)
scFv: DIQMTQSPSSVSASVGDRVTITCRASQGISSWLAWYQQKPGKAPKLLIYGASSLESGVPSRFSGSGSGTDFTLTISSLQPEDFASYYCQQANSFPYTFGQGTKLEIKGGGGSGGGGSGGGGSEVQLVESGGGLVQPGRSLRLSCAASRFTFDDYAMHWVRQAPGKGLEWVSGISWNSGRIGYADSVKGRFTISRDNAENSLFLQMNGLRAEDTALYYCAKGRDSFDIWGQGTMVTVSS
B2: scFv antibody derived from reference Antibody 4 (binding to IL-6R), fused with an Fc fragment of human IgG1 (Fc fusion, not shown: a dimerising Fc or GST)
scFv: QVQLQESGPGLVRPSQTLSLTCTVSGYSITSDHAWSWVRQPPGRGLEWIGYISYSGITTYNPSLKSRVTMLRDTSKNQFSLRLSSVTAADTAVYYCARSLARTTAMDYWGQGSLVTVSSGGGGSGGRASGGGGSGGGGSDIQMTQSPSSLSASVGDRVTITCRASQDISSYLNWYQQKPGKAPKLLIYYTSRLHSGVPSRFSGSGSGTDFTFTISSLQPEDIATYYCQQGNTLPYTFGQGTKVEIK
B3: scFv antibody derived from reference Antibody 3 (binding to IL-6), fused with an Fc fragment of human IgG1 (Fc fusion, not shown: a dimerising Fc or GST)
scFv: QIVLIQSPAIMSASPGEKVTMTCSASSSVSYMYWYQQKPGSSPRLLIYDTSNLASGVPVRFSGSGSGTSYSLTISRMEAEDAATYYCQQWSGYPYTFGGGTKLEIKGGGGSGGGGSGGGGSEVQLVESGGKLLKPGGSLKLSCAASGFTFSSFAMSWFRQSPEKRLEWVAEISSGGSYTYYPDTVTGRFTISRDNAKNTLYLEMSSLRSEDTAMYYCARGLWGYYALDYWGQGTSVTVSS
B4: scFv antibody derived from reference Antibody 2 (binding to IL-6), fused with an Fc fragment of human IgG1 (Fc fusion, not shown: a dimerising Fc or GST)
scFv: EIVLTQSPATLSLSPGERATLSCSASISVSYMYWYQQKPGQAPRLLIYDMSNLASGIPARFSGSGSGTDFTLTISSLEPEDFAVYYCMQWSGYPYTFGGGTKVEIKGGGGSGGGGSGGGGSEVQLVESGGGLVQPGGSLRLSCAASGFTFSPFAMSWVRQAPGKGLEWVAKISPGGSWTYYSDTVTGRFTISRDNAKNSLYLQMNSLRAEDTAVYYCARQLWGYYALDIWGQGTTVTVSS

Assays:
[1] = target: IL-6R expressed on HEK-Blue IL-6 reporter cells (UniProt P08887); experiment: cell-based or functional assay
UniProt P08887, sequence (P08887 20-468 limits assumed): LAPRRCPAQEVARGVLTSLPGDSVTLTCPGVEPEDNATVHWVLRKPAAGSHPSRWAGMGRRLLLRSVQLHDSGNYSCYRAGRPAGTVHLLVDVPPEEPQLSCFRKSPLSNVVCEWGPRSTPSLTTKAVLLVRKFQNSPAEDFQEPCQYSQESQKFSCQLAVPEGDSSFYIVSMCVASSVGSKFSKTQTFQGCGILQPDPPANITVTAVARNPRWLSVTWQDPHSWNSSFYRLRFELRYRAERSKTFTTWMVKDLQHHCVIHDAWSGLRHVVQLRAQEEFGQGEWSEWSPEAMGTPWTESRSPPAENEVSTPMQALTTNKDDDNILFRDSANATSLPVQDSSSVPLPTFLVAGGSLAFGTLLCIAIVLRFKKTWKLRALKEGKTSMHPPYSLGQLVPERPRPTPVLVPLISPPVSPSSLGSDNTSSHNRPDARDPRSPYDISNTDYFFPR

[2] = target: human IL-6 (human) (UniProt P05231); experiment: cell-based or functional assay
UniProt P05231, sequence (P05231 30-212 limits assumed): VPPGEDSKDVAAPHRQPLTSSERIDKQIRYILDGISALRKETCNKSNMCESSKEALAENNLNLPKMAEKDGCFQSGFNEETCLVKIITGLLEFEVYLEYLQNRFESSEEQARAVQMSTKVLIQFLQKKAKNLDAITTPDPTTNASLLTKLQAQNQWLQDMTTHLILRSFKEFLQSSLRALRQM

Row | Binder | inhibition of IL-6 signaling (SEAP production by HEK-Blue IL-6 reporter cells, 2 ng/ml human IL-6) [1] [%] | inhibition of IL-6 signaling (SEAP production by HEK-Blue IL-6 reporter cells, 2 ng/ml human IL-6) [2] [%]
1 | B1 | 100 | –
2 | B2 | < 60 | –
3 | B3 | – | < 60
4 | B4 | – | 100
